Legend:
[1] = tested on: advanced solid tumor malignancies; experiment: Ascending, multiple-dose clinical trial of intravenously administered mAb1 in patients with advanced cancer; format: in vivo
Experimental: This study was an open-label, ascending, multiple-dose study of mAb1 administered as an intravenous (IV) infusion (30 minutes) at doses of 1, 3, 6, 12 or 20 mg/kg once every 2 weeks. The study was conducted in patients with advanced solid tumor malignancies who have failed conventional therapy. The purpose of the study was to explore the safety, recommended dose (RD), pharmacokinetics (PK), pharmacodynamics (PD) and anti-tumor activity of mAb1 (also known as “H1H685P”).
Patients were screened to determine eligibility within 28 days prior to the first dose administration. Three patients were assigned to each of the five sequential cohorts (1, 3, 6, 12 or 20 mg/kg). Patients received mAb1 as a 30 minute IV infusion on Days 1 and 15 of each 4-week cycle (28 days). The dose of mAb1 was escalated until the recommended dose was determined, based on safety, tolerability, PK, PD testing and/or maximum tolerated dose (MTD). The MTD is defined as the highest dose at which less than 33% of patients experience dose-limiting toxicity (DLT) during the first cycle of therapy.
Six dose levels were planned for studying dose escalation. Starting at dose 1, a minimum of 3 patients was entered at each dose level. […] If no further cycle 1 DLT was observed, dose escalation proceeded to the next dose level. If two or more patients experienced a cycle 1 DLT, dose escalation was stopped and the previous lower dose level was expanded to 6 patients. Once the RD was determined, up to 10 additional patients were enrolled to evaluate safety and other biological/clinical effects. A separate cohort was planned for patients with hepatocellular carcinoma (HCC) where up to 10 patients were enrolled based on the eligibility criteria (listed below).
A DLT is defined by any of the following treatment-related events occurring during the first cycle (28 days) of study treatment: (1) Hematologic toxicity as evidenced by (a) Grade 3 or 4 neutropenia complicated by fever 38.5° C. or infection; (b) Grade 4 neutropenia of at least 7 days duration; (c) Grade 3 thrombocytopenia complicated by hemorrhage; or (d) Grade 4 thrombocytopenia; and/or (2) Non-hematologic toxicity as evidenced by (a) any Grade 4 non-hematologic toxicity; or (b) Grade 3 non-hematologic toxicities except fatigue, anorexia, nausea, vomiting or diarrhea that can be controlled by medication. Grade 3 laboratory changes that reflected tumor burden were not considered as DLT.
Safety was assessed throughout the study by monitoring Adverse Events and Serious Adverse Events.
For tumor assessment, a CT or MRI was performed at the screening visit (within 28 days prior to infusion) and during every even-numbered cycle (eg cycles 2, 4, 6, 8) between days 15 and 28 and when disease progression was suspected. Tumor assessment was performed according to Response Evaluation Criteria in Solid Tumors version 1.1 (RECIST version 1.1). RECIST criteria are developed to facilitate objective assessment of change in tumor burden such as tumor shrinkage and time to development of disease progression. RECIST guidelines are posted on the worldwide web at http://ctep(dot)cancer(dot)gov(slash)protocoldevelopment(slash)docs(slash)recist_guideline(dot)pdf. Tumor marker assessments were also collected, when available.
Blood samples were collected for RNA, serum cytokine testing, molecular profiling, anti-drug antibody (ADA) and serum mAb1 levels at screening and post-infusion on days 1, 2, 3, 8, 15 and 22 of cycle 1, and on day 1 of subsequent cycles. Tumor biopsies were obtained for immunohistochemistry studies for Ang-2. Results were scored as positive for Ang-2 in association with expression of endothelial cell CD31.

hBA2 = hBA2 (Homo sapiens, UniProt O15123); experiment: SPR binding to human bow-Ang-2 tetrameric construct (hBA2)
hAng-2FD-mFc Y-475-H = target: T1, hAng-2FD-mFc Y-475-H (Homo sapiens, UniProt O15123, Y475H); experiment: Ang-2FD-mFc point mutant binding experiment (SPR), Y-475-H; conditions: Y-475-H mutant captured; antibody/peptibody at 100 nM; 25° C.
T1 construct: made in house
Source text: To further characterize binding between hAng2 and anti-hAng2 mAbs of the invention, seven variant hAng2-FD-mFc proteins were generated, each containing a single point mutation. Amino acids selected for mutation were based on the difference in sequence between hAng-2 and hAng-1 in the region that interacts with hTie-2 (FIG. 1). In particular, amino acids within the fibrinogen-like domain (FD) of Ang-2 which are believed to interact with Tie-2 based on crystal structure analysis, but which differ from the corresponding amino acid in Ang-1, were individually mutated to the corresponding hAng-1 residue. The results of this example indicate the amino acid residues of hAng-2 with which the Ang-2 preferential binding antibodies interact.
In this experiment, each of the seven hAng-2FD-mFc mutant proteins were captured (˜147-283 RU) on an anti-mouse-Fc surface created through direct chemical coupling to a BIACORE™ chip. Then each Ang-2 antibody (or peptibody, as the case may be) at 100 nM was injected over the captured mFc-tagged hAng-2FD protein surface at a flowrate of 50 μl/min for 180 sec, and the dissociation of variant hAng2-FD-mFc and antibody was monitored in real time for 20 min at 25° C.

T1 sequence (O15123 with tags, fused parts or gaps Y475H): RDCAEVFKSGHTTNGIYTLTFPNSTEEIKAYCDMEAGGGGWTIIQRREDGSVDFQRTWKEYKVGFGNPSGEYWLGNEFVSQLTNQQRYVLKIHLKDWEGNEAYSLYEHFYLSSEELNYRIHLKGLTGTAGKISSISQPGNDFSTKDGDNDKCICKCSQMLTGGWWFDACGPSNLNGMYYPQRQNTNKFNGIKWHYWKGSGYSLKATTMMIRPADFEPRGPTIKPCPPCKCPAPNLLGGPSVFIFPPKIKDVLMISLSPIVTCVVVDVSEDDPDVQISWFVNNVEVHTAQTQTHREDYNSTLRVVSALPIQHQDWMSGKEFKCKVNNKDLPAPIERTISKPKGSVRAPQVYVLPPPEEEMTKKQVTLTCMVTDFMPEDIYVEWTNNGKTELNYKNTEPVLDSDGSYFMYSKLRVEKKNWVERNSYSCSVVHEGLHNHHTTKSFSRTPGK
hBA2, sequence (O15123 with tags, fused parts or gaps): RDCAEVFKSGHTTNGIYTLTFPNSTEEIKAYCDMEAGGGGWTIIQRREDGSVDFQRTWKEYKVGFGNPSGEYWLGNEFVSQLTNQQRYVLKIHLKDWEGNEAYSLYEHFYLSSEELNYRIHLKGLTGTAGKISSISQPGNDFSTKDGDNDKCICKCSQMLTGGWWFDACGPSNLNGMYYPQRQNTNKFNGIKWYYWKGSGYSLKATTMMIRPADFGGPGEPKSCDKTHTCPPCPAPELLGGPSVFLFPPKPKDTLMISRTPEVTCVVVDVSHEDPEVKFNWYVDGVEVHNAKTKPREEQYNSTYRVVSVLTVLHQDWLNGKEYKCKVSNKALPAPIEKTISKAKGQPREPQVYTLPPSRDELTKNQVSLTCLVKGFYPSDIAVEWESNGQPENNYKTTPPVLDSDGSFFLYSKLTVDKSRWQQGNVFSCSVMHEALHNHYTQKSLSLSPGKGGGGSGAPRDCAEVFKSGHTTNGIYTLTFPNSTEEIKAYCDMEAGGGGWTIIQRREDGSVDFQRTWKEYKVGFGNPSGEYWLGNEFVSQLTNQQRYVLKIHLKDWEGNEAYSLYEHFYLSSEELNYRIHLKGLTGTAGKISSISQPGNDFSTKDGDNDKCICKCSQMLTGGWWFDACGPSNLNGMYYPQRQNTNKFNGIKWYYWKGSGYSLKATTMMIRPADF

## H1H685P: human anti-Ang-2 antibody, HCVR/LCVR SEQ ID NOs 18/20; also referred to as mAb1 [Antibody H1H685P]
[1]; 3 mg/kg
  Positive ADA detected: 1 patient
[1]; 1 patient with adrenocortical cancer treated at 1 mg/kg
  Confirmed sustained patient response (PR), duration: 16 wks
[1]; 17 of 32 patients
  Stable disease (SD), patients evaluable for efficacy: 53%
[1]; all cohorts
  Total circulating serum Ang2 levels following treatment: saturated
[1]; human, in vivo, iv
  Maximum tolerated dose (MTD): not reached
[1]; one patient with thyroid cancer
  Stable disease (SD), duration: 46 weeks
[1]; patients
  Treatment-related adverse events (G½): abdominal distension: 11%
  Treatment-related adverse events (G½): decreased appetite: 11%
  Treatment-related adverse events (G½): diarrhea: 14%
  Treatment-related adverse events (G½): fatigue: 19%
  Treatment-related adverse events (G½): peripheral edema: 17%
  ≥Grade 3 TRAEs: no ≥Grade 3 TRAEs
[1]; patients evaluable for efficacy
  Stable disease (SD), duration range: 3.3-46.8 weeks
[1]; patients with advanced cancer
  Tolerability: generally well tolerated
[1]; patients, 1, 3, 6, 12 and 20 mg/kg IV every 2 weeks
  Dose-limiting toxicities (DLTs): No DLTs
[1]; patients, IV
  Pharmacokinetics (PK) across all dose levels: linear and dose-proportional
hBA2
  Kd: 11.9 pM
hAng-2FD-mFc Y-475-H
  Kd: 196 pM
  RU: 181.53 RU

Source: patent US9926369B2, “Methods for treating hepatocellular cancer by administering an anti-Ang-2 antibody” (Regeneron Pharmaceuticals, Inc., priority 2009, dated 2018)
